The assay addresses T1, hiR2-FL-L589P-T7 (human, UniProt Q6PJF5 1-856).
T1 sequence: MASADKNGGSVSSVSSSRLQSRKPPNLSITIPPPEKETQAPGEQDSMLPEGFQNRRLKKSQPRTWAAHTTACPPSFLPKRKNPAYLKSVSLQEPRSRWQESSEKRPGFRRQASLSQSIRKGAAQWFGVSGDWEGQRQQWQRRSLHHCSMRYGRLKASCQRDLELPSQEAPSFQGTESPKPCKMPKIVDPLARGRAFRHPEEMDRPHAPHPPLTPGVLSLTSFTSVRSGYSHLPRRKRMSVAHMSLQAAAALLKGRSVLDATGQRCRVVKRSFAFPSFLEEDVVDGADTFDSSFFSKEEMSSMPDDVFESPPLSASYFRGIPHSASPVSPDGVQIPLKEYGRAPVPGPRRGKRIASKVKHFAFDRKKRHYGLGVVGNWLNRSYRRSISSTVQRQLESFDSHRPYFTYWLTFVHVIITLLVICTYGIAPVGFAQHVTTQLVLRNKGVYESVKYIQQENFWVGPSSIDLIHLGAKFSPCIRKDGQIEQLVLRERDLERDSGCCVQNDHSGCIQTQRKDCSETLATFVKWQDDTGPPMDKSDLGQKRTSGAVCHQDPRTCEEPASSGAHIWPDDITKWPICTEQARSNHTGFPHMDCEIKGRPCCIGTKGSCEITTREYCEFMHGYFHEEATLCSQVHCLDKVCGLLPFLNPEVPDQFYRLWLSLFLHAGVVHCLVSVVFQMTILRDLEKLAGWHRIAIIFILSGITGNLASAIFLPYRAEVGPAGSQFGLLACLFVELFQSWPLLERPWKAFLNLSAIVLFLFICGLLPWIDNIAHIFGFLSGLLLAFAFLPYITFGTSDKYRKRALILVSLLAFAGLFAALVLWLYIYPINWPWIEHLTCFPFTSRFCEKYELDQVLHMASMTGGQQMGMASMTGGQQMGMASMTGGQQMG
In words: FACS, MEF-DKO cells, 3 µg/ml. Summed up:
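MEF-DKO cells expressing T7-tagged full-length hiR2 point mutants were stained on ice for 1 h with purified antibodies at 3 μg/ml in FACS buffer. Detection used PE-conjugated goat anti-mouse IgG F(ab′)2 (1:100, 1 h on ice), read by flow cytometry; buffer-only wells served as controls.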
A general note: In flow cytometry, cells or beads pass a laser one at a time.

Where a chain is given by its changes, count along the chain named. Bounds are passed on as bounds.

B1: antibody 48 (antibody, V domains shown)
VH: QVQLQQSGTELVRPGTSVKVSCKASGYAFTNYLIEWVKQRPGQGLEWIGVINPGSGFTKYNEKFKGKATLTADKSSSTVYMHLSSLTSEDSAVYFCARGLYRAMDYWGQGTSVTVSS
VL: DIQMTQSPASQSASLGESVTITCLASQTIATWLAWYQQKPGKSPQLLIYGATTLADGVPSRFSGGGSGTKFSFKISSLQAEDFVSYYCQQLYSTPYTFGGGTKLEIK
notes: mouse IgG, kappa light chain; also called clone #48; purified antibody 48
For the molecule B1, the “loss of binding vs wild type” value was at least 60%.

B2: antibody 50 (antibody, V domains shown)
VH: B1 VH with T9A, T16A, T30S, V79A, H82Q
VL: B1 VL with A30G, G50A, T52A, T53S, S85N, L91I
notes: mouse IgG, kappa light chain; also called clone #50; purified antibody 50
Take B2: the “loss of binding vs wild type” value is at least 95%.
